The target in the assay is Notch (Notch pathway receptors) in MC3T3-E1 murine osteoblasts (mouse). In words: cell-based or functional assay.

Turning to “human JAGGED1 overexpressed in SCP28 breast cancer cells (JAG1 OE tumor cells) (from UniProt P78504 34-1218) (ligand)”, the Notch activity (firefly luciferase Notch reporter in MC3T3-E1 osteoblasts cocultured with JAG1 OE tumor cells) came out at 6 fold.

Values taken from patent US20130309246A1.
